Values of other authors in paper PMC12404997.

Target: RhoA (Homo sapiens) (UniProt P61586)
UniProt P61586, sequence (P61586 1-190): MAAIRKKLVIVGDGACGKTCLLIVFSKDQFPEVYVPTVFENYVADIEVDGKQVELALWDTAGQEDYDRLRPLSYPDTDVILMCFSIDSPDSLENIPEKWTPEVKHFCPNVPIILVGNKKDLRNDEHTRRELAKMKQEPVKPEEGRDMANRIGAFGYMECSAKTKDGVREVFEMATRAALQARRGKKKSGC

## anillin (from UniProt Q9NQW6)
  Kd: 7 µM
